Measured values reported in patent US20130331552A1.

Molecular target: recombinant influenza HA3-protein (from H3N2, Wyoming, March 2003, Sino Biological Inc.) (influenza H3N2, Wyoming, March 2003)
Experiment: SPR imaging (IBIS MX96), antibody captured on anti-human-IgG chip, HA3 injected at 1 µg/ml, global 1:1 fit

B1: AT10-004 (antibody, V domains shown)
VH: RASQSVSRYLA
VL: RASQSVSRYLA
Question: Which results are given for B1?
Answer: Kd: 0.07 nM; koff: 1e-06 s⁻¹; kon: 14000 M⁻¹ s⁻¹
